Publication PMC4213023, “Structural Basis of Substrate Selectivity of E. coli Prolidase” (PLoS ONE, 2014)

Experiments:
[1] = tested on: C[C@H](N)C(=O)N1CCC[C@H]1C(N)=O; assay: purified protein; assay type: biochemical, Escherichia coli; conditions: 50 mM Tris pH 8, 20 mM Mg(OAc)2, 25°C, 1 µM AlaDH and 2 mM NAD+ (coupling)
[2] = target: Escherichia coli prolidase PepQ R370E (Escherichia coli) (UniProt P21165)
[3] = target: Escherichia coli prolidase PepQ, wild type (Escherichia coli) (UniProt P21165)
[4] = tested on: C[C@H](N)C(=O)N1CCC[C@H]1C(=O)O; assay: purified protein; assay type: biochemical, Escherichia coli; conditions: 50 mM Tris pH 8, 20 mM Mg(OAc)2, 25°C, 1 µM AlaDH and 2 mM NAD+ (coupling)
[5] = target: the molecule itself; assay: crystal structure; PepQ 12 mg/ml in 50 mM Tris pH 7.4, 5 mM MgCl2, 5 mM DTT; hanging drop at 4°C, 20% PEG MME 5000, 0.1 M Bis-Tris pH 6.5; one dimer in the asymmetric unit
[6] = target: the molecule itself; assay: SEC; analytical gel filtration, Superose 6, PepQ 10 nM in 50 mM Tris pH 7.4, 50 mM KOAc, 10 mM Mg(OAc)2, 2 mM DTT, 0.4 mL/min, tryptophan fluorescence detection

Molecule | Km [1] | kcat [1] | kcat/Km [1] | Km (mM) of hydrolysis of the dipeptide, coupled to AlaDH/NAD+ oxidation of alanine, 25°C [2] | Km (mM) of hydrolysis of the dipeptide, coupled to AlaDH/NAD+ oxidation of alanine, 25°C [3] | also measured
E. coli PepQ (Escherichia coli K-12; R370E) | 4.7 ± 0.2 mM | 1.1 ± 0.4 s⁻¹ | 230 M⁻¹ s⁻¹ | – | – | –
AlaPro-CONH2 substrate dipeptide | – | – | – | 4.7 mM | 6.6 mM | –
AlaPro-COOH substrate dipeptide | – | – | – | 127 mM | 1.2 mM | –
E. coli PepQ (Escherichia coli K-12) | 6.6 ± 0.5 mM | 80.7 ± 19.7 s⁻¹ | 12000 M⁻¹ s⁻¹ | – | – | Km [4]: 1.2 ± 0.1 mM; kcat [4]: 139 ± 2.5 s⁻¹; kcat/Km [4]: 120000 M⁻¹ s⁻¹
Escherichia coli prolidase PepQ, wild type (enzyme, UniProt P21165 1-443, looked up, E. coli PepQ (prolidase), gene PCR amplified from chromosomal E. coli DNA; Cloned NdeI/XhoI into pET21a; Two Mg(II) ions per active site in the crystal; also called E. coli PepQ; WT; source: E. coli BL21[DE3], pET21a, purified (fast-flow Q anion exchange, phenyl-sepharose, ammonium sulfate precipitation)) MESLASLYKNHIATLQERTRDALARFKLDALLIHSGELFNVFLDDHPYPFKVNPQFKAWVPVTQVPNCWLLVDGVNKPKLWFYLPVDYWHNVEPLPTSFWTEDVEVIALPKADGIGSLLPAARGNIGYIGPVPERALQLGIEASNINPKGVIDYLHYYRSFKTEYELACMREAQKMAVNGHRAAEEAFRSGMSEFDINIAYLTATGHRDTDVPYSNIVALNEHAAVLHYTKLDHQAPEEMRSFLLDAGAEYNGYAADLTRTWSAKSDNDYAQLVKDVNDEQLALIATMKAGVSYVDYHIQFHQRIAKLLRKHQIITDMSEEAMVENDLTGPFMPHGIGHPLGLQVHDVAGFMQDDSGTHLAAPAKYPYLRCTRILQPGMVLTIEPGIYFIESLLAPWREGQFSKHFNWQKIEALKPFGGIRIEDNVVIHENNVENMTRDLKLA | – | – | – | – | – | stoichiometry N [5]: 2
Escherichia coli prolidase PepQ R370E (enzyme, UniProt P21165 1-443, looked up, E. coli PepQ (prolidase) with R370E, made by site-directed mutagenesis of the wild-type construct (domains of the parent printed as 1-159 and 160-443); Same construct as m1 apart from R370E; PDB 4QR8 is the wild-type parent; also called R370E PepQ; charge-reversed mutant of PepQ; source: E. coli BL21[DE3], pET21a, purified following the protocols used for the wild-type enzyme) MESLASLYKNHIATLQERTRDALARFKLDALLIHSGELFNVFLDDHPYPFKVNPQFKAWVPVTQVPNCWLLVDGVNKPKLWFYLPVDYWHNVEPLPTSFWTEDVEVIALPKADGIGSLLPAARGNIGYIGPVPERALQLGIEASNINPKGVIDYLHYYRSFKTEYELACMREAQKMAVNGHRAAEEAFRSGMSEFDINIAYLTATGHRDTDVPYSNIVALNEHAAVLHYTKLDHQAPEEMRSFLLDAGAEYNGYAADLTRTWSAKSDNDYAQLVKDVNDEQLALIATMKAGVSYVDYHIQFHQRIAKLLRKHQIITDMSEEAMVENDLTGPFMPHGIGHPLGLQVHDVAGFMQDDSGTHLAAPAKYPYLECTRILQPGMVLTIEPGIYFIESLLAPWREGQFSKHFNWQKIEALKPFGGIRIEDNVVIHENNVENMTRDLKLA | – | – | – | – | – | binding result [6]: binds
